From patent US20260001933A1 (PETMEDIX, published 2026)
Read-outs that look alike come from different tables or passages of the source.

T1: Canine FcRn-B2M recombinant protein (Immunitrack) (canine, UniProt A0A8I3PFR8 25-296; P19341 1-42)
T1 chain 1: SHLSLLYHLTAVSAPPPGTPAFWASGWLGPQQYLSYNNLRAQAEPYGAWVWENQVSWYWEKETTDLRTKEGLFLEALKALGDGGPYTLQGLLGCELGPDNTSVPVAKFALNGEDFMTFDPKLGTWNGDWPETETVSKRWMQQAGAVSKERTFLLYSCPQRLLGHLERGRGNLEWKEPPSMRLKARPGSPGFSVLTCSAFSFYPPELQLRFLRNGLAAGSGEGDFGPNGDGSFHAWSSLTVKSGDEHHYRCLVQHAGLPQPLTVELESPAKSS
T1 chain 2: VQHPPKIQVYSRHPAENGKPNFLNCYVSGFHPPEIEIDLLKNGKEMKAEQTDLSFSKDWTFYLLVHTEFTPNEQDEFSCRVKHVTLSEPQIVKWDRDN

T2: Murine FcRn-B2M recombinant protein (Immunitrack) (murine, UniProt Q61559 22-297; P01887 21-119, limits assumed)
T2 construct: Bought reagent; also called murine neonatal receptor
T2 sequence (looked up): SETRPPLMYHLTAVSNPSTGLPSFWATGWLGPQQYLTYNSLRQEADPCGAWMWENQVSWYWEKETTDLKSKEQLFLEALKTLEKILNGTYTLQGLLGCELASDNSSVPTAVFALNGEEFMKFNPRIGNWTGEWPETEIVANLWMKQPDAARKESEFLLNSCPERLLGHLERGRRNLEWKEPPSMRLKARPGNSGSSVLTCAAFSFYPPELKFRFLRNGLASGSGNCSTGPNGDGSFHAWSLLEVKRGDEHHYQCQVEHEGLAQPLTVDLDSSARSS
T2 sequence (b2m, looked up): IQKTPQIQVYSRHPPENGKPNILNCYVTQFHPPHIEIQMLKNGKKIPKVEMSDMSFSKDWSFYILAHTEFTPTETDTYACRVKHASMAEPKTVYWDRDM


Assays:
[1] = target: T3, Human nerve growth factor (NGF) (human, UniProt P01138 122-241); assay: cell-based or functional assay
[2] = target: T3, Human nerve growth factor (NGF); assay: SPR, kinetic fit (caption of panel 7d: hNGF; BedinvetmAb; 1:1 binding); the set-up for Bedinvetmab is not described in the text; column head 'Kinetics affinity KD (nM)'
[3] = target: T4, Protein A (Sensor Chip Protein A, Cytiva) (UniProt P38507 212-269); assay: SPR (Biacore 8K), Sensor Chip Protein A, fusion protein produced in CHOZN injected over the chip, 1:1 binding kinetic fit; column head 'Kinetics affinity KD (nM)'
T4 construct: Commercial chip ligand; It may be a recombinant variant of staphylococcal protein A

[4] = target: T3, Human nerve growth factor (NGF); assay: SPR (Biacore 8K), PetML119 captured on Protein A chip, human NGF as analyte, multi-cycle kinetics; column head 'Kinetics affinity KD (nM)'
[5] = target: T1, Canine FcRn-B2M recombinant protein …; assay: SPR (Biacore 8K), canine FcRn-B2M amine-coupled on CM5, running buffer pH 6, fusion protein as analyte; steady state affinity
[6] = target: T2, Murine FcRn-B2M recombinant protein …; assay: SPR (Biacore 8K), murine FcRn-B2M amine-coupled on CM5, running buffer pH 6, fusion protein as analyte; steady state affinity
[7] = target: T5, Rat nerve growth factor (NGF) (rat, UniProt P25427 122-241); assay: SPR (Biacore 8K), PetML119 captured on Protein A chip, rat NGF as analyte, multi-cycle kinetics; column head 'Kinetics affinity KD (nM)'
T5 construct: Bought reagent; also called rat NGF

[8] = target: T4, Protein A (Sensor Chip Protein A, …); assay: SPR (Biacore 8K), Sensor Chip Protein A, fusion protein produced in CHO-s injected over the chip, 1:1 binding kinetic fit; column head 'Kinetics affinity KD (nM)'
[9] = target: T1, Canine FcRn-B2M recombinant protein …; assay: SPR (Biacore 8K), canine FcRn-B2M amine-coupled on CM5, running buffer pH 6, fusion protein as analyte; steady state affinity
[10] = target: T2, Murine FcRn-B2M recombinant protein …; assay: SPR (Biacore 8K), murine FcRn-B2M amine-coupled on CM5, running buffer pH 6, fusion protein as analyte; steady state affinity; remark: listed apart in the source

Binder	IC50 (nM), inhibition of NGF-dependent TF-1 cell proliferation [1]	Kd [2]	Kd [3]	Kd [4]	Kd [5]	Kd [6]	Kd [7]	Kd [8]	Kd [9]	Kd [10]
Bedinvetmab (antibody, V domains shown) VH: EVQLVESGGDLVKPGGSLRLSCVASGFTFSSHGMHWVRQSPGKGLQWVAVINSGGSSTYYTDAVKGRFTISRDNAKNTVYLQMNSLRAEDTAMYYCAKESVGGWEQLVGPHFDYWGQGTLVIVSS VL: QSVLTQPTSVSGSLGQRVTISCSGSTNNIGILGASWYQLFPGKAPKLLVYGNGNRPSGVPDRFSGADSGDSVTLTITGLQAEDEADYYCQSFDTTLGAHVFGGGTHLTVL	1.65 nM	0.073 nM								
PetML119 (canine p75NTR ECD-canine IgGB wt Fc protein fusion) (Fc fusion, Glycosylated, made in CHO cells; also called Fc-Bwt; Sample 1) KEACPTGLYTHSGECCKACNLGEGVAQPCGANQTVCEPCLDSVTFSDVVSATEPCKPCTECVGLQSMSAPCVEADDAVCRCAYGYYQDETTGRCEACRVCEAGSGLVFSCQDRQNTVCEECPDGTYSDEANHVDPCLPCTVCEDTERQLRECTRWADAECEEIPGGGGRENGRVPRPPDCPKCPAPEMLGGPSVFIFPPKPKDTLLIARTPEVTCVVVDLDPEDPEVQISWFVDGKQMQTAKTQPREEQFNGTYRVVSVLPIGHQDWLKGKQFTCKVNNKALPSPIERTISKARGQAHQPSVYVLPPSREELSKNTVSLTCLIKDFFPPDIDVEWQSNGQQEPESKYRTTPPQLDEDGSYFLYSKLSVDKSRWQRGDTFICAVMHEALHNHYTQKSLSHSPGK	15.2 nM		1.3 nM	0.12 nM	6000 nM	2000 nM	0.12 nM	2.8 nM		
PetML122 (canine p75NTR ECD-canine Fc YTE protein fusion) (Fc fusion, also called Fc-B-YTE; Sample 2) KEACPTGLYTHSGECCKACNLGEGVAQPCGANQTVCEPCLDSVTFSDVVSATEPCKPCTECVGLQSMSAPCVEADDAVCRCAYGYYQDETTGRCEACRVCEAGSGLVFSCQDRQNTVCEECPDGTYSDEANHVDPCLPCTVCEDTERQLRECTRWADAECEEIPGGGGRENGRVPRPPDCPKCPAPEMLGGPSVFIFPPKPKDTLYITREPEVTCVVVDLDPEDPEVQISWFVDGKQMQTAKTQPREEQFNGTYRVVSVLPIGHQDWLKGKQFTCKVNNKALPSPIERTISKARGQAHQPSVYVLPPSREELSKNTVSLTCLIKDFFPPDIDVEWQSNGQQEPESKYRTTPPQLDEDGSYFLYSKLSVDKSRWQRGDTFICAVMHEALHNHYTQKSLSHSPGK			15 nM						400 nM	90 nM
